# Experiment: soluble on expression in E. coli; label from the status in PepcDB or PDB records
row,Sequence,soluble on expression in E. coli
1,MNHLPVVGEDYVEIPDGRPFAPLAGKIEVVEIFGYTCPHCAHFDSKLQAWGARQAKDVRFTLVPAVFGGVWDPFARAYLAADVLGVAKRSHTAMFEAIHEKGSVPIQNVGPDELAVFYAGYGVQPDRFVATFNGPEVEKRFQAARAYALKVRPVGTPTIVVNGRYMVTGHDFEDTLRITDYLVSRERAASHGR,soluble
2,MLQGDITMRYNSLNSYLKEKFGCKIYKLALSGGLSCPNRDGTISTGGCIFCSNGGSGDFAADKMLSITEQIESAKNRVSAKIKNGKYIAYFQSFTNTYGDIDYLRSIFTEAINHPDIVALSIGTRPDCLPDEVLNLLGELNKIKPVWVELGLQTIHENTAKYINRGYTLDVFNTAVNNLNKINVDVIVHLIIGLPFESKEDILESVKYVSSMNISGIKLQLLHVLKNTPLEKEYSLNKFEVLSMEEYVNIIAECLRYIPKSIVIHRLTGDGPKSILVAPLWSGNKKAVLNYMNKRFNELNVIQGSLCS,not soluble
3,MSPAQIIRTPHSFPPSFTGTSSSAENSHAQSPQQVLTRAFVASGELNAAFGRTSTASEQDFTSLLGTLQRELERKTLSFPDIAELANQLAEAAKGDQGGHWLGRDEQQTLKGMIDRCKSQLAHTHASDASYDPLAQVCENLKTARLHQSISQMTGEAHAKVRGVPDLLALIQLDPDVLAEKPVGMTSYVNFGSFICMAKARTAELSEDLRSDPNEVALLLHPHADTILELERLPDALAALTENCPDTPTRDDLRSLAKETGELLQQLRANDLLPRSEEVSSYQGETSVRSREVVEPKLTLCQAGGNGQGQLEASSARPESLRYAPTRAASSGSEARVPGQAVGGKIADDAQKVAGLYAEKKRTNWTQANGVAGKISHKIQSLLGMRDAGSRVQAFVAFMADGKGRPGATMLDLGDGWMRATRVIKGEAALIDFQCDSDGKVVDARHPGRFPVLPQGNEREAFKTVLQELKFRGAETLSKVPVYYVNRNTRGYVIPTHGYVVAGHPNRGRKSGAVLYGVGGDPKRGPVALDEKLLGHLVGRSDSKTSSKLSAPVKAAISALAGASFATREDFYDAYCAVRGDAVDPLERHNEISSIYRLLPLSTMEMWPKKADDYRVARPA,not soluble
4,MDFHIDEKYKGMGKGRTFLIKTYGCQMNAHDTEVMAGILNALGYSATSDINEADVILINTCAIRENAENKVFSEIGNLKHLKKERPDCLIGVCGCMSQEESVVNKILKSYQNVDMVFGLEHHHHHH,not soluble
5,MKMLVGKIPSELLAKILEKLKPGDKVIVGPKVGIDATAIDFGDYVLVASTDPITGTEEKIGFYAVNINANDVATFGARPKWFLVTILLPEGSEFNDVITIMDEVREVAEGMGISIVGGHTEVTPGLKKPIVVGTMLGEVEKENLVVPNPRPGDAIILTKGAGIEGTSIIAHEREEELKGVFGSNFVERAKAFINEISIVREALLSREFATAMHDPTEGGIANGLHEMADINGLGFRIFANKVIIREETRKICHFYDLDPLALISSGALLISTPRDHAKFLIERLLSHGIQASIIGEFLAEKKRVIIENGAERPLKRPESDELWKVV,soluble
6,MSPSESGELSIIQELSQRIVEAQRQIRILDSIKWDESVKQEFFKFKGKKLPSIDKAYYDGKPLPFKVKDKQEEFRIILRDAQNQLGQYSTVTRLIRRQCEEYSRAAQMLSLRGTPSFSEMAMELYGSPDDVFYVGGPRMCEMGSLLFDVLKSLQVQLQSQADIKRYTPIQAQEILQERLGKFFDKHPGRVSVMVSDDMIADASAGADSIKLSQNAMFSDRDLRYLEVHEGWVHVGTTLNGALQPNCFFLSKGSPSSSVIQEGLAVITEVVTFSSYPGRMLKITNRVIALDKVTQGADFIDIYRYFLECGLSEEDSYNQSVRIFRGSTPTGGPFTKDLSYAKGFVLIYNYIRFAIGQKRVDTIPLLFTGKLVLDDLPLLGELKEREILTDPVYLPPPFQDLAALSAWMSFSLYLNQFDLNEIQKNFRFLLVLEHHHHHH,not soluble
7,MGQRVDKEVTPRFVELGQVSAIRTEPEIAYRSNQGVTRQRQQTKVFKLVSTYDKVAVKNAIRAAYRQVFERDLEPYIINSEFTALESKLSNNEINVKEFIEGLGTSELYMKEFYAPYPNTKVIEMGTKHFLGRAPLNQKEIQQYNQILASQGLKAFIGAMVNGMEYLQTFGEDTVPYRRFPTLPAANFPNTERLYNKLTKQDKELEHHHHHH,soluble
8,MLKPLGDRVVIELVQAEEKTASGIVLPDTAKEKPQEGKVIAVGTGRVLENGERVALEVAAGDLIIFSKYAGTEVKYEGTDYLILRESDILAVIG,not soluble
9,MGSDKIHHHHHHMQQVISDIMTFRGSHFELGVKTGKWLQQTPLLKNREKEWKKRVPRFDIDVNETYQIFQTYAPQIWEELMGLQSILKMPTRQIILNFGHYRFTDLKESGCTVFQGKDFMVRNYDYHPATYDGRYLLYQPTDSGLAQIGPVSRVTGRMDGMNESGLTMGYNFMHRKKPANGFVCYMIGRLILENCRNVTEAIQLLKEIPHRSSFSYILMDKSLNHAIVEVTPRSIDVRYDNICTNHFEILTHENRNYTKESKERLARTISQTNDNLDMTTAFKLFNNPQYEIYSKLFKSWSGTIHTSMYQPETLTAYFTLGENAPPEIIDFKSWLDGQDLNITHFTGNIDTDLTFANK,not soluble
10,GETQPESAAFTAPSTDNPIRINFNENPLGMSPKAQAAARDAVVKANRYAKNEILMLGNKLAAHHQVEAPSILLTAGSSEGIRAAIEAYASLEAQLVIPELTYGDGEHFAKIAGMKVTKVKMLDNWAFDIEGLKAAVAAYSGPSIVYLVNPNNPTGTITPADVIEPWIASKPANTMFIVDEAYAEFVNDPRFRSISPMITQGAENIILLKTFSKIHAMAGMRVGYAVAHPTVIALMGRYVAGEKINFSGVDAALASMNDSAFITYSKKSNDVSRQILLKALEDLKLPYLPSEGNFVFHQLVVPLKDYQTHMADAGVLIGRAFPPADNWCRISLGTPQEMQWVADTMREFRKKSWI,soluble
11,SNAIIAGETSIPSQGENMPAYHARPKNADGPLPIVIVVQEIFGVHEHIRDLCRRLAQEGYLAIAPELYFRQGDPNEYHDIPTLFKELVSKVPDAQVLADLDHVASWAARHGGDAHRLLITGFCWGGRITWLYAAHNPQLKAAVAWYGKLVGEKSLNSPKHPVDIAVDLNAPVLGLYGAKDASIPQDTVETMRQALRAANATAEIVVYPEADHAFNADYRASYHEESAKDGWQRMLAWFAQY,soluble
12,NDIYNNAITPYLNKETGYQEMFQRVNTRIREFMINELKNHHNEDNVFMLAKNSGIEIAKIEEAPNAVLIPAFVLGELEVAFK,not soluble
13,MAGDPMKKTLTVTVSSVLAFLALNNAAHAQQHGTQVKTPVQHNYVSNVQAQTQSPTTYTVVAGDSLYKIALEHHLTLNQLYSYNPGVTPLIFPGDVISLVPQNKVKQTKAVKTPVRKASQAKKVVKQPVQQASKKVVVKQAPKQAVAKTVNVAYKPAQVQKSVPTVPVAHNYNKSVANRGNLYAYGNCTYYAFDRRAQLGRSIGSLWGNANNWNYAAKVAGFKVDKTPEVGAIFQTAAGPYGHVGVVESVNPNGTITVSEMNYAGFNVKSSRTILNPGKYNYIHLEHHHHHH,not soluble
14,MQFGIFTIGDVTTDPTTGVTPSEHDRINAMTQIALKAEEVGLDVFATGEHHNPPFVPSSPTTHLAYIAAQTKNIQLSTSTTLITTNDPVKIAEDYAFLQHLSGGRVDLMMGRGNTGPVYPWFGKDIRKGIPLAVENYHLLRKLWREPVVNWKGEFRTPLQNYTSTPAPLGDVPPFVWHGSIRSVQIAEQAAFYGDGFFHNNIFWNKEHTAQMVNIYRQRFEKYGHGRADQAIVGLGGQVFIGETEAEAKKFFRPYFDNAPVYGHGPSLEEFTELTPLTVGTVEQVIERTMQFADWVGDYQRQLFLIDHAGLPLEVVLNQIEILGTQVVPELRRRMEKRRPDHVPSDPPSHSFLKAHPEHPHFLVEPSKTSAQ,not soluble
15,QCGACGESYAADEFWICCDLCEMWFHGKCVKITPARAEHIKQYKCPSCSNK,soluble

# — the DeepSol protein solubility set
